Here are results for one substance from publication PMC6098011, “Insights into degradation mechanism of N-end rule substrates by p62/SQSTM1 autophagy adapter” (Nature Communications, 2018).

The target in one assay is MBP-PB1-ZZ D69A (human) (UniProt Q13501). In words: SPR; BIAcore 2000; MBP-PB1-ZZ WT or D69A immobilised on CM5; R-BiP N407 5-100 μM injected; 20 mM HEPES pH 7.5, 100 mM NaCl, 1 mM DTT. For orientation: Surface plasmon resonance follows binding to a sensor surface in real time, without labels.
Assay [1] concerns the target MBP-fused PB1-ZZ of p62 (residues 1-181) wild type (human) (UniProt Q13501). The description is as above.

The Kd is the equilibrium constant for the complex coming apart. For the substance “R-BiP N407 protein (from UniProt P11021 19-654) (domain or fragment)”, the dissociation constant Kd with MBP-PB1-ZZ D69A (human) was determined as 26.1 µM; in assay [1], 20.2 µM.
